Substitutions are numbered along the chain they refer to. In names and notes the source's numbering stands. Blank lines part the entries; values can stand above or below the binder they belong to.
Key:
[1] = biological target: T1, Recombinant Human CTLA-4-Fc Chimera (BioLegend) (human, UniProt P16410 36-161, limits assumed); test: SPR (Biacore), Fc-fused hCTLA-4 captured by anti-human IgG (Fc), scFv as analyte, single cycle kinetics
T1 construct: Bought reagent; also called hCTLA-4; hCTLA-4 immobilized; not shown: human IgG1 Fc
T1 sequence (looked up): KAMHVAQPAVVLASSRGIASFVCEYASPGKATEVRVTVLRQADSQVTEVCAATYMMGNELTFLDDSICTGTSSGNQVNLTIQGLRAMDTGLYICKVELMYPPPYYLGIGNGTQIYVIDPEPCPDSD
Description: The binding kinetic parameter of each hCTLA-4scFv01-FLAG purified to hCTLA-4 (fusion protein with human IgG1Fc) was measured by surface plasmon resonance using Biacore system (manufactured by GE Healthcare). To a substrate having a carboxyl methyl dextran-coated gold membrane, a mouse anti-human IgG (Fc) monoclonal antibody (manufactured by GE Healthcare) was bound in accordance with amine coupling, and Fc-fused recombinant hCTLA-4 (Biolegend) was captured as a ligand. As an analyte, scFv purified was used. Samples of scFv having a concentration of 0.7404, 2.2222, 6.6667, 20 and 60 nM were prepared and sequentially subjected to binding in order of increasing concentration in accordance with single cycle kinetics. Data obtained were analyzed by BIA evaluation software (manufactured by GE Healthcare).
The binding kinetic parameter to hCTLA-4 (fusion protein with human IgG1Fc) was measured by surface plasmon resonance using Biacore system. Thereafter, analysis was carried out in the same manner as in Example 29.

[2] = biological target: T2, mPD-1 (Fc Chimera, R&D Systems) (mouse, UniProt Q02242 25-167); test: ELISA, antigen-Fc immobilized, scFv at 1000 ng/mL
T2 construct: Species read from the label mPD-1 only; also called mPD-1 immobilized; Fc part of the bought chimera not given
T2 sequence (looked up): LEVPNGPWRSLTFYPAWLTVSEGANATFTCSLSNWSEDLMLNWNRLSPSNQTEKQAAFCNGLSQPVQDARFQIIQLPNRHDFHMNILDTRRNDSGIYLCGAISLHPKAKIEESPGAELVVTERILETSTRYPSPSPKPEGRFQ
Description: (§1) After the liquid was removed, 1×PBS (350 μL) for each was dispensed and the liquid was removed. This operation was repeated three times for washing. To each of the plates, 1% BSA solution (350 μL) was dispensed at room temperature and incubated for 2 hours for blocking. After the liquid was removed, 1×PBS (350 μL) for each was dispensed and the liquid was removed. This operation was repeated three times for washing.
(§2) To blank wells, the signal enhancing reagent alone was dispensed in an amount of 100 μL. […] After the liquid was removed, 1×PBS (350 μL for each) was dispensed and the liquid was removed. This operation was repeated three times for washing.
(§3) The plates were shielded from light and incubated at room temperature for 20 minutes. […] Absorbance was measured at 450 nm and 570 nm (reference wavelength).

[3] = biological target: T1, Recombinant Human CTLA-4-Fc Chimera …; test: ELISA, antigen-Fc immobilized, scFv at 1000 ng/mL
Description: as §1, §2, §3

[4] = biological target: T2, mPD-1 (Fc Chimera, R&D Systems); test: ELISA, antigen-Fc immobilized, scFv at 100 ng/mL
Description: as §1, §2, §3

[5] = biological target: T1, Recombinant Human CTLA-4-Fc Chimera …; test: ELISA, antigen-Fc immobilized, scFv at 100 ng/mL
Description: as §1, §2, §3

[6] = biological target: T2, mPD-1 (Fc Chimera, R&D Systems); test: ELISA, antigen-Fc immobilized, scFv at 1 ng/mL
Description: as §1, §2, §3

[7] = biological target: T1, Recombinant Human CTLA-4-Fc Chimera …; test: ELISA, antigen-Fc immobilized, scFv at 1 ng/mL
Description: as §1, §2, §3

[8] = biological target: T2, mPD-1 (Fc Chimera, R&D Systems); test: ELISA, antigen-Fc immobilized, scFv at 10 ng/mL
Description: as §1, §2, §3

[9] = biological target: T1, Recombinant Human CTLA-4-Fc Chimera …; test: ELISA, antigen-Fc immobilized, scFv at 10 ng/mL
Description: as §1, §2, §3

[10] = biological target: T3, human PD-1 overexpressed on HEK293T cells (human, UniProt Q15116 25-288); test: flow cytometry on HEK293T cells overexpressing hPD-1; anti-hCTLA-4scFv01-FLAG purified from PC4, used as in Example 24 (biotinylated Protein L and Brilliant Violet 421 Streptavidin) [d]
T3 construct: whole, on cells; also called hPD-1 expressing cells; human PD-1 overexpressing cell
T3 sequence (Q15116 25-288): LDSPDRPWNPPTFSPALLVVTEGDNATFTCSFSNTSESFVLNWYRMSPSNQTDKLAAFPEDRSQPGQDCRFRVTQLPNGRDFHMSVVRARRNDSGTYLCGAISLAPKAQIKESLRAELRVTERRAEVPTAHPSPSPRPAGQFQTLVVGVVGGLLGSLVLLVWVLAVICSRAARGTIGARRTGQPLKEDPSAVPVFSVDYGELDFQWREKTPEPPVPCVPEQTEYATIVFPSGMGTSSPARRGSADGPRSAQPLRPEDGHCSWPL

B1: anti-hCTLA-4scFv01 (not tagged) of single-expression strain C2TLB (scFv)
scFv: AQVQLVESGGGVVQPGRSLRLSCAASGFTFSSYGMHWVRQAPGKGLEWVAVIWYDGSNKYYADSVKGRFTISRDNSKNTLYLQMNSLRAEDTAVYYCARDPRGATLYYYYYGMDVWGQGTTVTVSSGGGGSGGGGSGGGGSDIQMTQSPSSLSASVGDRVTITCRASQSINSYLDWYQQKPGKAPKLLIYAASSLQSGVPSRFSGSGSGTDFTLTISSLQPEDFATYYCQQYYSTPFTFGPGTKVEIK
notes: Plasmid pC2TLB; PC2TL and PC7TL secrete the same scFv; Signal peptide SP67 left out; also called scFv derived from C2TLB strain; anti-hCTLA-4scFv01 in culture supernatants of PC2TL and PC7TL
Kd [1]: 0.98 nM
koff [1]: 0.000961 s⁻¹
kon [1]: 981000 M⁻¹ s⁻¹

B2: anti-hCTLA-4scFv01 (not tagged) of single-expression strain C3TLB (scFv)
scFv: B1 scFv with A1D
notes: Plasmid pC3TLB; PC3TL, PC5TL and PC8TL secrete the same scFv; Signal peptide SP68 left out; also called scFv derived from C3TLB strain; anti-hCTLA-4scFv01 in culture supernatants of PC3TL, PC5TL and PC8TL
Kd [1]: 1.29 nM
koff [1]: 0.000996 s⁻¹
kon [1]: 773000 M⁻¹ s⁻¹

B3: anti-hCTLA-4scFv01 (not tagged) of single-expression strain C1TLB (scFv)
scFv: ATLTPQVQLVESGGGVVQPGRSLRLSCAASGFTFSSYGMHWVRQAPGKGLEWVAVIWYDGSNKYYADSVKGRFTISRDNSKNTLYLQMNSLRAEDTAVYYCARDPRGATLYYYYYGMDVWGQGTTVTVSSGGGGSGGGGSGGGGSDIQMTQSPSSLSASVGDRVTITCRASQSINSYLDWYQQKPGKAPKLLIYAASSLQSGVPSRFSGSGSGTDFTLTISSLQPEDFATYYCQQYYSTPFTFGPGTKVEIK
notes: Plasmid pC1TLB; PC4TL and PC6TL secrete the same scFv; Signal peptide SP50 left out; also called scFv derived from C1TLB strain; anti-hCTLA-4scFv01 in culture supernatants of PC4TL and PC6TL
Kd [1]: 1.48 nM
koff [1]: 0.00098 s⁻¹
kon [1]: 661000 M⁻¹ s⁻¹

B6: anti-hCTLA-4scFv01-FLAG purified from single-expression strain C2F (scFv)
scFv: AQVQLVESGGGVVQPGRSLRLSCAASGFTFSSYGMHWVRQAPGKGLEWVAVIWYDGSNKYYADSVKGRFTISRDNSKNTLYLQMNSLRAEDTAVYYCARDPRGATLYYYYYGMDVWGQGTTVTVSSGGGGSGGGGSGGGGSDIQMTQSPSSLSASVGDRVTITCRASQSINSYLDWYQQKPGKAPKLLIYAASSLQSGVPSRFSGSGSGTDFTLTISSLQPEDFATYYCQQYYSTPFTFGPGTKVEIKDYKDDDDK
notes: Plasmid pP30SP67L1-hCTLA-4scFv01-FLAG (pC2F); PC2 and PC7 secrete the same scFv; Signal peptide SP67 left out; also called scFv derived from C2F strain
Kd [1]: 2.28 nM
koff [1]: 0.00103 s⁻¹
kon [1]: 452000 M⁻¹ s⁻¹

B7: anti-hCTLA-4scFv01-FLAG purified from single-expression strain C3F (scFv)
scFv: B6 scFv with A1D
notes: Plasmid pP30SP68L1-hCTLA-4scFv01-FLAG (pC3F); PC3, PC5 and PC8 secrete the same scFv; also called scFv derived from C3F strain
Kd [1]: 2.97 nM
koff [1]: 0.00103 s⁻¹
kon [1]: 347000 M⁻¹ s⁻¹

The remaining lines, values ahead:

OD value [2]: 0.107 OD
OD value [3]: 0.341 OD
OD value [4]: -0.049 OD
OD value [5]: -0.018 OD
OD value [6]: -0.059 OD
OD value [7]: -0.062 OD
OD value [8]: -0.057 OD
OD value [9]: -0.055 OD
B4: anti-hPD-1scFv03 purified from the culture supernatant of co-expression strain PC1 (scFv)
scFv: DSAQTSAVVSSRSFPKASSVQVQLVESGGGVVQPGRSLRLDCKASGITFSNSGMHWVRQAPGKGLEWVAVIWYDGSKRYYADSVKGRFTISRDNSKNTLFLQMNSLRAEDTAVYYCATNDDYWGQGTLVTVSSGGGGSGGGGSGGGGSEIVLTQSPATLSLSPGERATLSCRASQSVSSYLAWYQQKPGQAPRLLIYDASNRATGIPARFSGSGSGTDFTLTISSLEPEDFAVYYCQQSSNWPRTFGQGTKVEIKHHHHHH
notes: Secreted from the cassette SP7L20-anti-hPD-1scFv03-His tag; also called anti-PD-1scFv03

binding result [10]: no binding (tested: 1 ug/mL)
Kd [1]: 1.08 nM
koff [1]: 0.000996 s⁻¹
kon [1]: 918000 M⁻¹ s⁻¹
B5: anti-hCTLA-4scFv01-FLAG purified from single-expression strain C1F or from co-expression strain PC4 (scFv)
scFv: ATLTPQVQLVESGGGVVQPGRSLRLSCAASGFTFSSYGMHWVRQAPGKGLEWVAVIWYDGSNKYYADSVKGRFTISRDNSKNTLYLQMNSLRAEDTAVYYCARDPRGATLYYYYYGMDVWGQGTTVTVSSGGGGSGGGGSGGGGSDIQMTQSPSSLSASVGDRVTITCRASQSINSYLDWYQQKPGKAPKLLIYAASSLQSGVPSRFSGSGSGTDFTLTISSLQPEDFATYYCQQYYSTPFTFGPGTKVEIKDYKDDDDK
notes: Plasmid pP30SP50L5-hCTLA-4scFv01-FLAG (pC1F) and pPC4; PC4 and PC6 secrete the same scFv as C1F; Signal peptide SP50 left out; also called scFv derived from C1F strain; hCTLA-4scFv01-FLAG purified from PC4 strain

From US20170260534A1 (ANAEROPHARMA SCIENCE, published 2017)
